Data on nine molecules can be found in PMC6032152, “Ca2+/Calmodulin-Dependent AtSR1/CAMTA3 Plays Critical Roles in Balancing Plant Growth and Immunity”.

For this data set, the target named is T1, AtSR1 (CAMTA3) CG-1 domain (Arabidopsis thaliana, UniProt Q8GSA7 1-153).
T1 sequence: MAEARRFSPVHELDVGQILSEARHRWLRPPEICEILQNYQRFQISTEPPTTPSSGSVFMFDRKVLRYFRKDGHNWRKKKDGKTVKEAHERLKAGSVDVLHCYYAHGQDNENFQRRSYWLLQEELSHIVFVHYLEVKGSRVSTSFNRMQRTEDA
Nature of the data set: EMSA; EMSA; buffer, salt, pH and temperature not given in the material. To be noted: protein: recombinant; tags: 6His (pET32a-derived plasmid). A general note: A gel shift assay detects complexes by their altered migration in electrophoresis.

B1: DWF4 promoter fragment (dsDNA)
DNA 1: ATAAGCCTATACGCGCTCAAAGTATG
DNA 2: CATACTTTGAGCGCGTATAGGCTTAT
B1: the binding result is listed as “binds”.

B2: At5g41750-1 promoter fragment (dsDNA)
DNA 1: TCTTTAGTCGTCGCGAATTCTTTGGG
DNA 2: CCCAAAGAATTCGCGACGACTAAAGA
Regarding B2, the binding result is given as “no binding”.

B3: IAA19 promoter fragment (dsDNA)
DNA 1: AAAAAGCACGACGCGGTGCCATTACT
DNA 2: AGTAATGGCACCGCGTCGTGCTTTTT
Turning to B3, the binding result is reported as “binds”.

B4: SAUR41 promoter fragment (dsDNA)
DNA 1: AACGAAGGGCCCGCGCTGTACTCGAT
DNA 2: ATCGAGTACAGCGCGGGCCCTTCGTT
Turning to B4, the binding result is reported as “no binding”.

B5: IAA1-2 promoter fragment (dsDNA)
DNA 1: AAGAAAGAAGCCGCGTCCAAAATCTT
DNA 2: AAGATTTTGGACGCGGCTTCTTTCTT
On to B5, for which the binding result is given as “binds”.

B6: At5g41750-2 promoter fragment (dsDNA)
DNA 1: TCATTGGTCCTCGCGACTATAACAAA
DNA 2: TTTGTTATAGTCGCGAGGACCAATGA
As to B6, the binding result is “binds”.

B7: PDF1.4 promoter fragment (dsDNA)
DNA 1: CGTGAAAGTCACGCGCCAAGAACAAA
DNA 2: TTTGTTCTTGGCGCGTGACTTTCACG
B7: the binding result is given as “binds”.

B8: NPR1 promoter fragment (dsDNA)
DNA 1: AAAGTAAAAAACGCGGAAAGCAATAA
DNA 2: TTATTGCTTTCCGCGTTTTTTACTTT
Consider B8, for which the binding result is “binds”.

B9: ADR1 promoter fragment (dsDNA)
DNA 1: ATTAATCAAAACGCGTAAAAAGAGTA
DNA 2: TACTCTTTTTACGCGTTTTGATTAAT
Turning to B9, the binding result is on record as “binds”.
